The source of these data is the DeepSol protein solubility set.

This data set in a line: soluble on expression in E. coli; label from the status in PepcDB or PDB records.
Consider “MSNLPFHQFCGTEGYVASRALQDVVNVAIALERPLLLKGEPGTGKTLLAYHIAKALGMEIILWNVKSTTKARDGLYTYDTVQRLNDARFGDGDVRDIRHYIKLGPLGRAFGSAERVVLLIDEVDKADIEFPNDLLFELDEMRFHVLETDEWVSAAHRPVVIVTSNSEKELPDAFLRRCVFHYIDFPDETQMRAIIDVHFPDLPAELMRSACKVFYGLREVPGLRKRPSTSELLDWIRVLLASGARLPEEETPALQSVPFLGALVKIQEDADILAHHASRSADVRTAGRRFFRLEHHHHHH”, for which the “soluble on expression in E. coli” value is “not soluble”. The result for “MSNLVLYTLHLSPPCRAVELTAKALGLELEQKTINLLTGDHLKPEFVKLNPQHTIPVLDDNGTIITESHAIMIYLVTKYGKDDSLYPKDPVKQARVNSALHFESGVLFARMRFIFERILFFGKSDIPEDRVEYVQKSYELLEDTLVDDFVAGPTMTIADFSCISTISSIMGVVPLEQSKHPRIYAWIDRLKQLPYYEEANGGGGTDLGKFVLAKKEENAKA” reads “soluble”; that for “MSNQYINEPITTGKVTLETTAGDIEIELWTKEAPLACRNFIQLCMENYYKGTVFHRLVKNFILQGGDPTATGTGGESIYGKPFKDEIHQRLKFNRRGIVGMANAGRDDNGSQFFFTIGDRGAPELDKKHTIFGKVTGPTLFNMLKITEVETEGDRPVTFYKITGARIDNNPFDDLKPREKRKKEKSERRKEPKVVETKKTNLLSFGDEVEEDEQELAVFNKV”, “not soluble”; that for “MSNSDEQILQFYVEHFEKALEKTQNVLLEFAESPLNHLKPTKRATDAQAFQFNSTCPGVENLNKLEREALFQQSSFVNLWLNLAYTCSKSSLSFWDSRDQGSEGGKLEVFMPRLHDSLTTEFHRIHLDPQEFATICAITTWKIHQWGTVEANTVAGQHYLAVIKELNNHHKKTTTMRDFERALRITEIISLLVPIGRMLQEVKTLYETLGIKDDGRE”, “not soluble”. The result for “MSNTESTPVFDVCLSEKSFPHAQDKAILVHVFLSQTKDIDNLTEFQTLAESAGVELLSTLTTSRNAPHIKYFVGQGKAEEIAQAVENLGATVVLINHQLSPAQTRNLQNLCGCRIVDRSGLILDIFAQRARSHEGKLQVELAQLRHLSTRLVRRLGNQDQQKGGSVGLRGPGETQLETDRRLIKVRIQQLQNQLDKVNKKRHQNRKTRQKADIPTVSLVGYTNAGKSTLFNAITQAGVYAADQLFATLDPTLRRMQIQDVGTTILADTVGFIRFLPHDLVSAFKSTLQETTEANLLLHVVDIADERKNDNITAVNQVLDEIGALTLPSLLIYNKVDKITDITPHIERNQEGKPIAVYLSAHTNQGIDLLYQAIRECLRNELVCQKILLPTTAGQIYAQIRNQNCIKQEHFNQFGDRLIDIEVNAVQWQKWLKQYPALIEYVAFAKWENELEHHHHHH” reads “not soluble”; that for “MSNTHEVRPGQSIELLKALHILTRDGKMNQDSRRKLKQVYHLYQFIEPLLQNARNARGAVTLVDHGAGKSYLGFILYDLFFKDRRDASHIYGIETRAELVQSATELAARLGFGGMSFLNLSVADSIASEQLPPRVDIVTALHACNTATDDAIRFALAKQAQSIVLVPCCQAEVAAVLRKNKARALADPMAELWRHPLHTREFGSQLTNVLRCLQLEAHGYQLSVTELVGWEHSMKNELIIARHQPGRPRREPARRLREMLERIGLQELSERFQVPAQP”, “not soluble”; that for “MSNTKTASTGFAELLKDRREQVKMDHAALASLLGETPETVAAWENGEGGELTLTQLGRIAHVLGTSIGALTPPAGNDLDDGVIIQMPDERPILKGVRDNVDYYVYNCLVRTKRAPSLVPLVVDVLTDNPDDAKFNSGHAGNEFLFVLEGEIHMKWGDKENPKEALLPTGASMFVEEHVPHAFTAAKGTGSAKLIAVNF”, “soluble”. Take “MSNTQKKNVPELRFPGFEGEWEEKKLGNLTTKIGSGKTPKGGSENYTNKGIPFLRSQNIRNGKLNLNDLVYISKDIDDEMKNSRTYYGDVLLNITGASIGRTAINSIVETHANLNQHVCIIRLKKEYYYNFFGQYLLSRKGKRKIFLAQSGGSREGLNFKEIANLKIFTPTIFEEQQKIGKFFSKLDRQIELEEQKLELLQQQKKGYMQKIFTQELRFKDENGEEYPEWENKFIKDIFIFENNRRKPITSSLREKGLYPYYGATGIIDYVKDYLFNNEERLLIGEDGAKWGQFETSSFIANGQYWVNNHAHVVKSNDHNLFFMNYYLNFKELRAFVTGNAPAKLTHANLCNINLKIPCLTEQDKVSALLKSIDNKMNNQMNRIELLKERKKGLLQKMFI”: the “soluble on expression in E. coli” value is reported as “not soluble”. In the case of “MSNVPAELKYSKEHEWLRKEADGTYTVGITEHAQELLGDMVFVDLPEVGATVSAGDDCAVAESVKAASDIYAPVSGEIVAVNDALSDSPELVNSEPYTGGWIFKIKASDESELESLLDATAYEALLEDE”, the “soluble on expression in E. coli” value was “not soluble”. For “MSNWKPNIPYNDLPPLPPKQDIESKTILKRCIAARASLARLKQAAELIPNQAMLINTLPVMEARASSEIENIVTTTDKLFQSLQMDTERQDPATKEALQYRTALFAGYESLTSRPLCTQTAIMVCNAIKHPYEMAIRKTGGTALKGGNSGNVVYTPPEGEETIRGKLANWERFIHESGDLDPLIIMAAAHYQFEAIHPFTDGNGRTGRILNSLLLIEKGLLDLPILYLSRYIIENRADYYRLLLGVTERQDWESWIIYILDGVADTADWTVSKIDAIRRLFEQTRQHIRTHAQGIYTHELVNLLFEQPYTRIANLEAAGIAKRQTASKYLKELSDIGVLQEIVIGRDKLFIHPRLMELLRGEGNSFTSFQSLVKA”, the “soluble on expression in E. coli” value was “not soluble”. The result for “MSPGAWPRPRVVVSACLGFAAVRYSGELIPDKVVAALKEHVDFVPVCPEVEIGLGVPRPVVRLVRGEGGGPRMVQPKTGEDLTERMRAFSQRFLQGLGEVEGFLLKNRSPSCALKDAKRYAHAEGGGVVGKGPGLFAQAVEEAFPLLPKEDEGRLTNPRIRAHFFTRIFALARLRRVEDLPGLMAFHARYKLLLLAYNQKEARALGRLLAGAKGRPFPEVHGAYEEGFLRATERPWRLGAMADALLHAFGHFKKALAPREKAHFLDLLADFREERLPLEAPLALLASWARRFAEPYVEAQALLEPYPRALMHVPGA” reads “soluble”. The result for “MSPGPQSGGQERGSMERKMVELEDTGLTFATEVDLERLQALAAEWLQVIGEDPGREGLLKTPERVAKAWAFLTRGYRQRLEEVVGGAVFPAEGSEMVVVKGVEFYSMCEHHLLPFFGKVHIGYIPDGKILGLSKFARIVDMFARRLQVQERLAVQIAEAIQEVLEPQGVGVVVEGVHLCMMMRGVEKQHSRTVTSAMLGVFRENQKTREEFLSHLRDGTA” reads “soluble”; that for “MSPIVSVPDITAPVENVPAILPKVVPGELIVNKPTGGDSDELFQYLVDILASPVYDVAIESPLELAEKLSDRLGVNFYIKREDKQRVFSFKLRGAYNMMSNLSREELDKGVITASAGNHAQGVALAGQRLNCVAKIVMPTTTPQIKIDAVRALGGDVVLYGKTFDEAQTHALELSEKDGLKYIPPFDDPGVIKGQGTIGTEINRQLKDIHAVFIPVGGGGLIAGVATFFKQIAPNTKIIGVEPYGAASMTLSLHEGHRVKLSNVDTFADGVAVALVGEYTFAKCQELIDGMVLVANDGISAAIKDVYDEGRNILETSGAVAIAGAAAYCEFYKIKNENIVAIASGANMDFSKLHKVTELAGLGSGK”, “soluble”; that for “MSPPDLEDEPFMENQDVAGENDLFVLDGRQDPPNLPQNHLEEVVGEIVENLERWHFAEILADGAEIHEDIIEDVGGDEVEEEEVDIDWVSPLSKEYSKPFSKS”, “not soluble”.

Consider “MSPPLAEERLTRIVQLLAERGTLRTAALTELLGVSSATIRRDLDVLAGRGLIRKLHGGAALAAPEPEAPLNQDQFYRDRQQVNHLGKQRLAGRALELIAPGQTLYLDAGTTALALAEALQRTPQLTRTLRVVTHGIDVAYVLNGECALYVVGGEVYGSTYSLTGPDALSTVSRYNYDLFFVSCTSIDPAGRLTNSNSVEAQQKASILRQSRRSVLIADQSKWGPPGFAPFAGFAEVSAWVTDRAPATARAAFEQAGVTVLEADASARELSADLEHHHHHH”, for which the “soluble on expression in E. coli” value was “soluble”. Consider “MSPRCANLALKHYLLKPVQRIPQYRLLLTDYLKNLIEDAGDYRDTQDALAVVVEVANHANDTMKQGDNFQKLMQIQYSLNGHHEIVQPGRVFLKEGILMKLSRKVMQPRMFFLFNDALLYTTPVQSGMYKLNNMLSLAGMKVRKPTQEAYQNELKIESVERSFILSASSATERDEWLEAISRAIEEYAKKRITFCPSRSLDEADSENKEEVSPLGSKAPIWIPDTRATMCMICTSEFTLTWRRHHCRACGKIVCQACSSNKYGLDYLKNQPARVCEHCFQELQKLDHQHSPRIGSPGNHKSPSSALSSVLHSIPSGRKQKKIPAALKEVSANTEDSSMSGYLYRSKGNKKPWKHFWFVIKNKVLYTYAASEVRSEI”, for which the “soluble on expression in E. coli” value is “soluble”. The result for “MSPTVRTARHDDYDDIVDLTSDVWADRAMADYIPDVFRDWVDDDGPNRKTLVVDVDGHAVGLAQAVILTETEAWFQGMRVDSDHRGKGFGSLLTEHLIEWAADAGASVGRSMVFSWNEAGLGQSLAAGFEAVTSFRWAHPDPADETPEMTVRNDPTNAWRYWQESDGRGVLSGLALDSGESWALSTLTRETLDRLAADQTVLTIGDDGPQGMACRVRTTDADGEQLAEYAVGVWSDVDAARALFTAIAADAATLGVDGTRVLIPETPRHVAQAAYASGNIDECPDFVLEIDGLEELS” reads “not soluble”. With “MSPVEAALETLAHTMGITVIETSKLGSTLNACFHPPTQTIFIKIGLDPVTRRCAIAHELGHAHYGHNCSTPGAERQADEWAAQQLLDVGDVEAVGLECEGSAAAMAAELGVTPHLLVLWMGMYERGRIQPEKRAC”, the “soluble on expression in E. coli” value is recorded as “not soluble”.

On to “MSQFGATAIGIANIAMNGEVLDTWYPTPELVPASTSPSYSERLGAQDLPPKLLSLVRLDEDRLVEQVAVRTYIGDLDTPPIDAHDVFLRLHLLSHRLVRPLEINMDNAMSILSRVVWTNKGPCLPENFENIRMSLRNRGLIHVYGIDRLPRMVDYVVPTGVEITEAERVRLGAYLAEGTKVLREGYVSFNAGTLGAGRIEGRLYSGTVVGDNVDLGISASIVPDKPHAQLRVGANCVFGLGSAVMGINLGDNVRVGNNVVIDKETMVYFADRDITAAAAILDGQSDWQIHAESGRPEPVVRPT”, for which the “soluble on expression in E. coli” value was “soluble”. The result for “MSQFISLTQYQLIEVQGADAEKYLQGQLTSDVVRLASGATTLTAHCDPKGKMNAIYRLFKVSSEQFFLLVKKDILPSGLDALKKYAVFSKVSFDLRDWQIIGVIGEKCGKITPNFSLEIDEKRSILLNETELPVNFNGDEKIWEVADIQAGLPNLSPQTQNEFIPQALNLQAIEQAISFTKGCYIGQETVARAKYRGANKRAMFIFKVQTQQEAEIGSEIEMQLEANWRKTGTITSAVNLDGVLWLQVVMNNDIDSEQQFRLLNSEILLERVQLPYSITELEHHHHHH” reads “soluble”; that for “MSQGFKTEADVMRNTAHRVDDTNQEVSAELSRLRSIVDGVRASWEGTAQVSFDNLMQRWDASAKGLQDALQSISDNIRGNATSFENVEADNQSAFSAVGGQGLAL”, “not soluble”; that for “MSQHAFSPDENVHLSPKGWYRQASEKPGFIHDAAQAAAIEQLDRLWHELVDFKSKRNRFLGRSLRSPQVPRGLYFWGGVGRGKSFLMDAFYACVPYRRKRRIHFHHFMAETHRELRKFAGGKDPLLAYADQIAKATRLLCFDEFHVSDIADAMILGRLLSALLERGVVVVTTSNYAPDDLYPGGLQRQNFLPTIELIKRELDVLNVDGGHDYRLRELTREPLFMVPADAANEGKMEQLFRRVSTGAELAQKSITVLEREIAVKRMSPGVIWFDFMALCDGPRAQTDYLEIASEYHTVFLSGIPRLSAKQASIARRFTWLVDVFYDNRVKLIASADAPPEAIYTEGLQSGEFFRTASRLTEMQSKSYLELPHQSMTQSHDQPPPGVALLEHHHHHH”, “not soluble”.
